Reference: a protein production outcome set (Wang et al. 2014)

Experiment: label from the status in PepcDB records

Sequence: MSDGIPFAGEPADSHEAIMRATFRALREYGYAGLSIQRIADEADLSKSTFYHHFDGKEDLLLSFQEFILTEFNRIFQIESTGDPEQDIKTFVSLILDDFPDCVETPTKNAVLGSYVEMRAQAVQNPDFREKFTETDELFARQLVQIIEDGIEQGVFADVDPDTVSRFMITILDGVILQSATRNDNPVAEVRDTIDEYIEETLILNT
- protein production: failed

Sequence: MSDHEVTGGVSLKERVAIVLVEPQSPGNVGMVCRAMKNMGLGELRIVKGCRLDHPEALKFAVSARDLLERARVFESLEDALSDTELSVATTRRHGKYRQEIFSPKEIVSKFAANLAGNRAALVFGREDNGLTTDELSLCRWHATIPSSEEYGSLNLAQAVMVFCYELFTSLGSRTVGGEDRPLAGSAETEPLFEHMERTLMRIGYLNPQNPAHLMRSLRRIFARSELDSREVAILRGMMTQIDWAADQFKGKKGA
- protein production: failed

Sequence: MSDHFSIIKFDIGNSTMNAERKFLFACLIFALAIYAIHAFGLFDLLTDLPHLQTLIRQSGLFGYSLYILLFIIATLFLLPGSILVIAGGIVFGPFLGTLLSLIAATLASSCSFLLARWMGRDLLLKYVGHSHTFQAIEKGIARNGIDFLILTRLIPLFPYNIQNYAYGLTTIAFWPYTLISALTTLPGIVIYTVMASDLANEGITLRFILQLCLAGLALFILVQLAKLYARHKHVDLSASRRNPLTHPKNEG
- protein production: failed

Sequence: MSDHKAVHSVQAKAEGKTLVMERSFEAPRELVFKAFSGSVHLESWWGPKGWQTANSRFEFQPDGVWLYCMECRDQNQGEFYGRKSCGKAVFQEIAAPEKIVYTDMFTDEEGNVVPGMPEILNEVYFQERDVGTKLITRSHFSSPKELQQLLDKGMVEGFSSQLERLEDYLKAIR
- protein production: failed

Sequence: MSDIRMRADIAADGLTDRPPDRLADEPAEELSHGLLEGLSKEPADELADSPFLLDEPPDYFEDFLLFIFTLMKTTSCLGVAKTTHKLFLCVEPTKEKVAFSDKATSFSAPIEILLFNLDPPSIQGYLRRPLSLKDLHISSARIIDAPLLKPNG
- protein production: failed

Sequence: MSDKFHILLLNGPNLNLLGTREPEKYGYTTLAEIVSQLEIQAQGMDVALSHLQSNAEHALIDSIHQARGNTDFILINPAAFTHTSVALRDALLGVQIPFIEIHLSNVHAREPFRHHSYLSDIAVGVICGLGADGYNFALQAAVNRLSKSN
- protein production: not failed

Sequence: MSDNNDRMYELEYPSPEVSGQTAGGPTLIVALQGYADAGHAVESSSSHLMDALDHRLIASFNNDELIDYRSRRPVVVIEHNEVTSMDELNLGLHVVRDNDNKPFLMLSGPEPDLRWGDFSNAVVDLVEKFGVENTICLYAAPMTVPHTRPTVVTAHGNSTDRLKDQVSLDTRMTVPGSASLMLEKLLKDKGKNVSGYTVHVPHYVSASPYPAATLKLLQSIADSADLNLPLLALERDAEKVHRQLMEQTEESSEIQRVVGALEQQYDSE
- protein production: not failed

Sequence: MSDPAEVPTASPLLETVGLACERDWRMLFERLDLRLAAGEMLQVVGPNGSGKTSLLRLLSGLMQPTAGEVRLNGRPLAEQRGELARSLLWIGHAAGIKGLLSAEENLTWLCALHQPASREAIWQALADVGLRGFEDVPCHTLSAGQQRRVALARLYLDAPPLWILDEPFTALDKQGVAQLETHLAGHCQRGGMVVLTTHHSLQQVPAGYRELDLGALKAASGATVEPALGDPA
- protein production: failed

Sequence: MSDRDSWISNLGFVLAAVGGAAGLGNIWRFPWLTAGNGGSAFLIVYLLVVVGIGVPGLLAEFVLGRCGRQTPTAALRSLTGSRWGSWLGAFNVLTTLVILSFYSVVGGWILRYTLVSPVGTYFGQPQQYFGAMSFGLEAVAFHLLFLGIVAAIVFFGISNGIERVSKVMLPGVVIILLGLAVWTATQPGTAAGYAFYLSFDAEYLAANFLSVIGPAAGQALFTLSLGAGVMLTYASYLDDNASLPRDTLVIAVSNTFIGVLAGLVVIPLLFSQGVDPGQGGPGALFVALATAFATLPGGELVATAFFVTVLMAAVTSGISLLETPVATLVDSFGVPRRRATVLVSVLLAATGSGLALTSSVFQFVSGTLADLMLTVGLFAFTVIVGWLLRGDALAEFRAGTARFEWLAKPWLLTVSWVLPVVVLFLLTNTLASLAGISVGLGGRVIIAVIGTVALAVVVRNGSRTDRLSSH
- protein production: failed

Sequence: MSDRIASEKLRSKLMSADEAAQFVNHGDKVGFSGFTGAGYPKALPTAIANRAKEAHGAGNDYAIDLFTGASTAPDCDGVLAEADAIRWRMPYASDPIMRNKINSGSMGYSDIHLSHSGQQVEEGFFGQLNVAVIEITRITEEGYIIPSSSVGNNVEWLNAAEKVILEVNSWQSEDLEGMHDIWSVPALPNRIAVPINKPGDRIGKTYIEFDTDKVVAVVETNTADRNAPFKPVDDISKKIAGNFLDFLESEVAAGRLSYDGYIMQSGVGNVPNAVMAGLLESKFENIQAYTEVIQDGMVDLIDAGKMTVASATSFSLSPEYAEKMNNEAKRYRESIILRPQQISNHPEVIRRVGLIATNGLIEADIYGNVNSTNVSGSRVMNGIGGSGDFTRNGYISSFITPSEAKGGAISAIVPFASHIDHTEHDVMVVISEYGYADLRGLAPRERVAKMIGLAHPDYRPLLEEYYARATSGDNKYMQTPHDLATAFDFHINLAKNGSMKA
- protein production: not failed

Sequence: MSDSAEMQQPELLLKSMNKLNGYHPQLIIPKKTLFKCDLDDKQSRLQVSSMHMENSGFLTEDEKRTIEAQKMKKRRTAGLRVAFIDPESQQYVLELHKWTKSYAFVKGWNKVVDKNDKTFKVGDVFSLWVFRCGGVNPVHDGVNLSGGHADSVVDGLEQGSLCFVLVPAKVSVHDGNLPQDSGHDGHNDNLPQDSVEPSSFFDESYELNHLFFDQEDSQGYLPDEDEDFGFNDDGSIRDSGHYQ
- protein production: failed

Sequence: MSDSATEYDKLFIGGKWTKPSTSDVIEVRCPATGEYVGKVPMAAAADVDAAVAAARAAFDNGPWPSTPPHERAAVIAAAVKMLAERKDLFTKLLAAETGQPPTIIETMHWMGSMGAMNYFAGAADKVTWTETRTGSYGQSIVSREPVGVVGAIVAWNVPLFLAVNKIAPALLAGCTIVLKPAAETPLTANALAEVFAEVGLPEGVLSVVPGGIETGQALTSNPDIDMFTFTGSSAVGREVGRRAAEMLKPCTLELGGKSAAIILEDVDLAAAIPMMVFSGVMNAGQGCVNQTRILAPRSRYDEIVAAVTNFVTALPVGPPSDPAAQIGPLISEKQRTRVEGYIAKGIEEGARLVCGGGRPEGLDNGFFIQPTVFADVDNKMTIAQEEIFGPVLAIIPYDTEEDAIAIANDSVYGLAGSVWTTDVPKGIKISQQIRTGTYGINWYAFDPGSPFGGYKNSGIGRENGPEGVEHFTQQKSVLLPMGYTVA
- protein production: not failed

Sequence: MSDSKSHDPNQMTGAAMIVRAMIDHGVEHIFGYPGGSVLPIYDELFQNSEKLQHILVRHEQGAGHAAEGYARSTGKPGVVLVTSGPGATNMVTPLADALMDSIPIVCITGQVPTHLIGNDAFQECDTVGITRPCTKHNWLVRDIKDLARVLHEAFYVATSGRPGPVVVDVPKDVQFATGTYHPPRKSDVHVSYTPRLKGDPGQIRKAVALLASAKKPVIYSGGGVVNSGEEAWKLLRELVEVTDFPITSTLMGLGAYPASGKNWLGMLGMHGTYESNMTMHDCDVMLCIGARFDDRITGRTDAFSPNSKKIHIDIDPSSINKNIRVDVPIIGDVAHVLADLLAAFKAEAKKADTKAWWLQIAAWRGRNSLAYKKNNDVILPQYAIERLYAATRGRDTYITTEVGQHQMWAAQFYGFERPRRWMTSGGLGTMGYGLPAALGVQVAHPDSLVIDIAGDASVQMTMQEMATAVQYELPIKIFILNNQYMGMVRQWQQLLHGNRLSHSYTEAMPDFVKLADAYGGVGMQVFKPSDLDGAIQDMIKVKKPVLFDCRVASLENCFPMIPSGKAHNEMLLPSEANDETTAAAFAGGGALV
- protein production: failed

Sequence: MSDSLFLSLAKFDVILSGSTNSNILHDVMGQVIDRSEIQDLNANNKPTKKIDFHLRDQHDTRLACILWGKYAEIVDKACQESTDGIVVCLIRFAKINLYNDTRSVSNFFDVSQVFVDPTLAELDLFKQSIP
- protein production: failed

Sequence: MSDTVLTGLLDTVWQQFGRGTKDRHHPARHPTLATIGTDGPDLRTLVLRAASHAEATLEFHTDAASPKVAHIRRDARVAIHIWIPKASLQVRAKAIAKILPGDPNLFAQLPEAARMNYQGPVPGTPLPAEPDATPNRFTRLICHLSEIDVLHLTTPHQRAVYTAPDWRGIWVSP
- protein production: not failed
